The source of these data is US20200325236A1 (REYOUNG SUZHOU BIOLOGY SCIENCE AND TECHNOLOGY, published 2020).

The target in assay [1] is T1, human 4-1BB protein (human, UniProt Q07011 24-186, limits assumed).
T1 construct: Coating protein in the ELISAs of Embodiments 4 and 5; also called h4-1BB
The experiment in a line: ELISA of binding activity before and after humanization; the coated antigen is not named there, taken as 4-1BB from the legend and axis. For orientation: In an ELISA, binding on a coated surface is turned into a signal by an enzyme label.

Assay [2] concerns the target T1, human 4-1BB protein. Briefly: ELISA, plate coated with human 4-1BB protein (1 ug/mL), HRP goat anti-human IgG, OD 450 nm.
Another assay addresses T2, human OX-40 protein (human, UniProt P43489 29-214, limits assumed).
T2 construct: Homologous family member used as the specificity control
T2 sequence (looked up): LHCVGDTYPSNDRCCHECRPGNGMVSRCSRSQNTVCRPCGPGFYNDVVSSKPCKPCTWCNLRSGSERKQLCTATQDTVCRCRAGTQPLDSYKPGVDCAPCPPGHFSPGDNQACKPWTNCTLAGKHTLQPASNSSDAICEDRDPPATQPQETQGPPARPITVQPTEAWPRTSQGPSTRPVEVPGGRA
The experiment in a line: ELISA, plate coated with human OX-40 protein (1 ug/mL), HRP goat anti-human IgG, OD 450 nm.

Assay [3] addresses T3, human 4-1BB-Fc fusion protein (human, UniProt Q07011 24-186).
T3 construct: Antigen amine-coupled to the Biacore chip; also called h4-1BB-Fc fusion protein; h4-1BB; not shown: Fc part
The experiment in a line: SPR, Biacore T200, h4-1BB-Fc amine-coupled to chip, antibody 0.3125-5.0 ug/mL as analyte. As to the method: Affinity of the antibody: determining binding kinetics of the purified antibody which is prepared in the embodiment 2 and the h4-1BB by using BIAcore T200; coupling 1 mg/mL antigen (h4-1BB-Fc fusion protein) to the surface of a CMS chip by using an amino coupling method, binding at 30 μL/min for 300 s when the concentration of the antibody is within 0.3125-5.0 μg/mL and then dissociating for 300 s; and analyzing data recorded by the Biacore T200 by using Biacore T200 Evaluation Software, wherein analysis results are as shown in Table 1.

In assay [4] the target is cynomolgus monkey 4-1BB protein (cynomolgus monkey). Briefly: ELISA, cynomolgus monkey 4-1BB coated at 1 ug/mL, HRP goat-anti-human IgG detection. How it is done: (§1) The cross-reactive activity of the antibody with cynomolgus monkey 4-1BB molecules is determined by ELISA. The ELISA comprises steps of coating the human 4-1BB or cynomolgus monkey 4-1BB (1 μg/mL) with the ELISA plate, incubating overnight at 4 DEG C.; washing three times with PBST (0.1% Tween 20), blocking with 3% BSA for 1 h; washing three times, adding the purified anti-human 4-1BB antibody prepared in the embodiment 2 and incubating for 1 h; washing three times and adding horse radish peroxidase (HRP) labeled goat-anti-human IgG (1:2000 dilution) and incubating for 1 h; washing three times, then adding the substrate solution (TMB) and developing the color at room temperature in the dark; and finally, adding the stop solution (2N H₂SO₄) and reading the optical density (OD) value at 450 nm.

The target of assay [5] is T1, human 4-1BB protein. The experiment in a line: ELISA, human 4-1BB coated at 1 ug/mL, HRP goat-anti-human IgG detection. As to the method:
as §1

B1: Humanized 4-1BB antibody (antibody, V domains shown)
VH: QVQLVQSGAEVKKPGASVKVSCKASGYAFTNYWLGWVRQAPGHGLEWMGDIYPGNGNSYYAQKFQGRVTMTRDKSSSTVYMELSSLRSEDTAVYFCTRSSSYYRDVMDYWGQGTLVTVSS
VL: DIQLTQSPSFLSASVGDRVTITCRASENIYSYLVWYQQKPGKAPKLLIYNAKTLAEGVPSRFSGSGSGTEFTLTISSLQPEDFATYYCQHHYGTPLTFGAGTKLEIKR
notes: ab1 after humanization by template replacement with back mutations; also called humanized anti-human 4-1BB antibody; ab1 humanized antibody
With B1, in the assay with human 4-1BB protein [1], the EC50 (read off the curve) (as a rule, the concentration that produces a half-maximal response) was ~0.05 µg/mL.

B2: ab1 chimeric antibody (anti-human 4-1BB antibody ab1) (antibody, human IgG1, V domains shown)
VH: QVQLQQSGAELVRPGTSVKISCKASGYAFTNYWLGWVKQRPGHGLEWIGDIYPGNGNSYYNEKFKGRATLTADKSSSTVYMQLSSLTSEDSVVYFCTRSSSYYRDVMDYWGQGTSVTVSS
VL: DIQMTQSPASLSASVGETVTITCRASENIYSYLVWYQQKQGKSPQLLVYNAKTLAEGVSSRFSGSGSGTQFSLKINSLQPEDFGSYYCQHHYGTPLTFGAGTKLELKR
notes: also called anti-h4-1BB chimeric antibody; anti-h4-1BB monoclonal antibody
Regarding B2, the “EC50 (read off the curve)” value in the assay with human 4-1BB protein [2] was ~0.1 µg/mL. The “EC50 (read off the curve)” value with human 4-1BB protein [1] is ~0.09 µg/mL. Also, the binding result in the assay with human OX-40 protein was “no binding”. Also, in assay [3], the Kd – broadly, a measure of binding affinity in units of concentration – is 93.4 pM; the off-rate constant (koff) (usually a measure of how fast the partners let go of each other) is 1.37e-05 s⁻¹; the on-rate (kon) (commonly a measure of how fast the partners come together) was determined as 146000 M⁻¹ s⁻¹. The response in assay [4] was half-maximal at 2670 pM (EC50). Moreover, in the assay with human 4-1BB protein [5], the EC50 (as a rule, the concentration giving half of the maximal effect) was 670 pM.
